Experiments:
SEC = target: the molecule itself; experiment: SEC
AUC [1] = target: the molecule itself; experiment: AUC
AUC [2] = target: the molecule itself; experiment: AUC; remark: listed apart in the source

Row | Protein | stoichiometry N (SEC) | stoichiometry N (AUC [1]) | stoichiometry N (AUC [2])
1 | Burkholderia thailandensis inosine-5'-monophosphate dehydrogenase (enzyme, Burkholderia thailandensis strain E264, UniProt Q2SWW9 1-486, looked up, also called IMPDHbt; class II IMPDH) MRLIQKALTFDDVLLVPAFSDVLPRDTSLKTQLTRHISLNMPLVSAAMDTVTEGRLAIAMAQQGGVGIVHKNLTPVEQAREVAKVKRFESGVVRDPITVPPSMKVRDVIALSRQHGISGFPVLEGPKLVGIVTNRDLRFETRLDEPVKSIMTPRERLVTVAEGTPLAEAKALMHSHRLERVLVVNDAFELRGLMTVKDITKQTEHPEACKDEHGKLRVGAAVGVGADNEERVELLVQAGVDVIVVDTAHGHSKGVLERVRWVKQNFPKVEVIGGNIATAAAAKALVEYGADAVKVGIGPGSICTTRIVAGVGVPQISAIANVSDALRGTGVPCIADGGIRFSGDVSKALAAGANAVMMGSMFAGTEEAPGDVFLYQGRQYKSYRGMGSVGAMKDGAADRYFQDNSANIDKLVPEGIEGRVAYKGSVNAIIFQLIGGVRASMGYCGCKTIAEMHEKAEFVEITAAGMRESHVHDVQITKEAPNYHVD | ~4 | 8 | 4
2 | Neisseria meningitidis inosine-5'-monophosphate dehydrogenase (enzyme, Neisseria meningitidis strain FAM18, UniProt Q9JZB5 1-487, looked up, also called IMPDHnm; class I IMPDH) MRIVEKAYTFDDVLLVPAHSTVLPRDVKLQTKLTREITLNLPLLSAAMDTVTEARLAISMAQEGGIGIIHKNMPPEMQARAVSKVKRHESGVVKDPVTVAPTTLIREVLEMRAQRKRKMSGLPVVENGKVVGIVTNRDLRFENRVDLPVSAIMTPRERLVTVPEGTSIDEARELMHTHKVERVLVLNEKDELKGLITVKDILKTTEFPNANKDSEGRLRVGAAVGTGGDTEERVKALVEAGVDVIVVDTAHGHSQGVIDRVRWVKETYPHIQVIGGNIATAKAALDLVAAGADAVKVGIGPGSICTTRIVAGVGVPQLTAIHNVAEALKGTGVPLIADGGIRFSGDIAKALAAGAYSVMLGGMFAGTEEAPGEIELYQGRSYKSYRGMGSLGAMSQGSADRYFQDKTDSTDKYVPEGIEGRVPYKGPIVNIIHQLTGGLRSSMGYLGCANIAEMHEKAEFVEITSAGMSESHVHDVQITKEAPNYHR | ~8 |  | 8
3 | Legionella pneumophila subsp. pneumophila inosine-5'-monophosphate dehydrogenase (enzyme, also called IMPDHlpp; class I IMPDH) MPLSIVQQSLTFDDVLLVPAHSTILPKDVSLKTKLTRAIHLNMPLISAAMDTVTEARLAIALAQEGGLGIIHKNMSIADQAEEVRRVKKFESGMVKDPISVTPDLTVKELLAVMTKYNFSGVPVVDGKHLVGIVTSRDIRFETNMNLTVAQVMTPKGRLVTVKEGASREEVRSLLHKHRIEKLLVVNENFELRGLITVKDIQKAKDNPYACKDSFEQLRVGAAVGVGEGTDERVAALVESGVDVIVVDTAHGHSQGVLNRVKWIKKNYPDVQVIGGNIATAAAARDLYEAGADAVKVGIGPGSICTTRIVTGVGIPQISAIANVAQELKGIIPVIADGGIRFSGDVCKALAAGADTVMLGSMFAGTEESPGEIELYQGRTYKNYRGMGSIGAMSLAQGSSDRYFQDASLGTEKLVPEGIEGRVPYKGPVQTIIHQLLGGLRSCMGYTGCATIEELHSKTEFVQVTNAGMRESHVHDVSITKQAPNYQVDN | ~8 |  | 8
4 | Staphylococcus aureus inosine-5'-monophosphate dehydrogenase (enzyme, Staphylococcus aureus strain N315, UniProt P99106 1-488, looked up, also called IMPDHsa; class II IMPDH) MWESKFAKESLTFDDVLLIPAQSDILPKDVDLSVQLSDKVKLNIPVISAGMDTVTESKMAIAMARQGGLGVIHKNMGVEEQADEVQKVKRSENGVISNPFFLTPEESVYEAEALMGKYRISGVPIVDNKEDRNLVGILTNRDLRFIEDFSIKIVDVMTQENLITAPVNTTLEEAEKILQKHKIEKLPLVKDGRLEGLITIKDIEKVIEFPNAAKDEHGRLLVAAAIGISKDTDIRAQKLVEAGVDVLVIDTAHGHSKGVIDQVKHIKKTYPEITLVAGNVATAEATKDLFEAGADIVKVGIGPGSICTTRVVAGVGVPQITAIYDCATEARKHGKAIIADGGIKFSGDIIKALAAGGHAVMLGSLLAGTEESPGATEIFQGRQYKVYRGMGSLGAMEKGSNDRYFQEDKAPKKFVPEGIEGRTAYKGALQDTIYQLMGGVRAGMGYTGSHDLRELREEAQFTRMGPAGLAESHPHNIQITKESPNYSF | ~4 | 8 | 4
5 | Pseudomonas aeruginosa inosine-5'-monophosphate dehydrogenase (enzyme, UniProt Q9HXM5 1-489, looked up, also called IMPDHpa; class I IMPDH) MLRISQEALTFDDVLLIPGYSEVLPKDVSLKTRLTRGIELNIPLVSAAMDTVTEARLAIAMAQEGGIGIIHKNMGIEQQAAEVRKVKKHETAIVRDPVTVTPSTKIIELLQMAREYGFSGFPVVEQGELVGIVTGRDLRVKPNAGDTVAAIMTPKDKLVTAREGTPLEEMKAKLYENRIEKMLVVDENFYLRGLVTFRDIEKAKTYPLASKDEQGRLRVGAAVGTGADTGERVAALVAAGVDVVVVDTAHGHSKGVIERVRWVKQTFPDVQVIGGNIATAEAAKALAEAGADAVKVGIGPGSICTTRIVAGVGVPQISAIANVAAALEGTGVPLIADGGIRFSGDLAKAMVAGAYCVMMGSMFAGTEEAPGEIELFQGRSYKSYRGMGSLGAMSGSQGSSDRYFQDASAGAEKLVPEGIEGRVPYKGALSAIVHQLMGGLRAAMGYTGSADIQQMRTQPQFVRITGAGMAESHVHDVQITKEAPNYRVG | ~8 | 8 | 

Reference: publication PMC4338043 (PLoS ONE, 2015)
